First the molecules themselves.
B1: H/R/N RAS Q61R_A1_c119 (scFv)
scFv: DIQMTQSPSSLSASVGDRVTITCRASQDVNTAVAWYQQKPGKAPKLLIYSASFLYSGVPSRFSGSRSGTDFTLTISSLQPEDFATYYCQQGQYSPFTFGQGTKVEIKRTGGGSGGGGSGGGASEVQLVESGGGLVQPGGSLRLSCAASGFNVSYEYMHWVRQAPGKGLEWVAEIYGGSDNTYYADSVKGRFTISADTSKNTAYLQMNSLRAEDTAVYYCSRPLGSYFDYWGQGTLVTVSS
B2: H/K/N RAS Q61K_A1_c18 (scFv)
scFv: DIQMTQSPSSLSASVGDRVTITCRASQDVNTAVAWYQQKPGKAPKLLIYSASFLYSGVPSRFSGSRSGTDFTLTISSLQPEDFATYYCQQYAYAPFTFGQGTKVEIKRTGGGSGGGGSGGGASEVQLVESGGGLVQPGGSLRLSCAASGFNVSYSMIHWVRQAPGKGLEWVARVWGDGGVTYYADSVKGRFTISADTSKNTAYLQMNSLRAEDTAVYYCSRGSYYAFDYWGQGTLVTVSS
B3: H/K/N RAS Q61H_A1_c10 (scFv)
scFv: DIQMTQSPSSLSASVGDRVTITCRASQDVNTAVAWYQQKPGKAPKLLIYSASFLYSGVPSRFSGSRSGTDFTLTISSLQPEDFATYYCQQGYFYYPNTFGQGTKVEIKRTGGGSGGGGSGGGASEVQLVESGGGLVQPGGSLRLSCAASGFNIGYYGMHWVRQAPGKGLEWVATVYPGGGYTSYADSVKGRFTISADTSKNTAYLQMNSLRAEDTAVYYCSRYYYYGFDYWGQGTLVTVSS
B4: H/K/N RAS Q61K_A1_c16 (scFv)
scFv: DIQMTQSPSSLSASVGDRVTITCRASQDVNTAVAWYQQKPGKAPKLLIYSASFLYSGVPSRFSGSRSGTDFTLTISSLQPEDFATYYCQQHYYSPVTFGQGTKVEIKRTGGGSGGGGSGGGASEVQLVESGGGLVQPGGSLRLSCAASGFNIFYQDMHWVRQAPGKGLEWVAMIYPDYDYTYYADSVKGRFTISADTSKNTAYLQMNSLRAEDTAVYYCSRTYSVYMDYWGQGTLVTVSS
B5: H/R/N RAS Q61R_A1_c116 (scFv)
scFv: DIQMTQSPSSLSASVGDRVTITCRASQDVNTAVAWYQQKPGKAPKLLIYSASFLYSGVPSRFSGSRSGTDFTLTISSLQPEDFATYYCQQAHMIPITFGQGTKVEIKRTGGGSGGGGSGGGASEVQLVESGGGLVQPGGSLRLSCAASGFNFSFPGMHWVRQAPGKGLEWVAWFVGYDGYTYYADSVKGRFTISADTSKNTAYLQMNSLRAEDTAVYYCSRDYYSFSMDYWGQGTLVTVSS
B6: H/R/N RAS Q61R_A1_c117 (scFv)
scFv: DIQMTQSPSSLSASVGDRVTITCRASQDVNTAVAWYQQKPGKAPKLLIYSASFLYSGVPSRFSGSRSGTDFTLTISSLQPEDFATYYCQQSVYDPITFGQGTKVEIKRTGGGSGGGGSGGGASEVQLVESGGGLVQPGGSLRLSCAASGFNISGSWIHWVRQAPGKGLEWVAWLYPDSDYTYYADSVKGRFTISADTSKNTAYLQMNSLRAEDTAVYYCSRAHTYAFDYWGQGTLVTVSS
B7: H/R/N RAS Q61R_A1_c122 (scFv)
scFv: DIQMTQSPSSLSASVGDRVTITCRASQDVNTAVAWYQQKPGKAPKLLIYSASFLYSGVPSRFSGSRSGTDFTLTISSLQPEDFATYYCQQYWYLPTTFGQGTKVEIKRTGGGSGGGGSGGGASEVQLVESGGGLVQPGGSLRLSCAASGFNISWYDIHWVRQAPGKGLEWVADIEPSVGYTYYADSVKGRFTISADTSKNTAYLQMNSLRAEDTAVYYCSRSYPYYYFDYWGQGTLVTVSS
B8: H/R/N RAS Q61R_A1_c118 (scFv)
scFv: DIQMTQSPSSLSASVGDRVTITCRASQDVNTAVAWYQQKPGKAPKLLIYSASFLYSGVPSRFSGSRSGTDFTLTISSLQPEDFATYYCQQSYTSPLTFGQGTKVEIKRTGGGSGGGGSGGGASEVQLVESGGGLVQPGGSLRLSCAASGFNIYYGVMHWVRQAPGKGLEWVAMIYPDSSWTYYADSVKGRFTISADTSKNTAYLQMNSLRAEDTAVYYCSRDQDFHYMNYYLSYALDYWGQGTLVTVSS
B9: KRAS_G12D_A11_c117 (scFv)
scFv: DIQMTQSPSSLSASVGDRVTITCRASQDVNTAVAWYQQKPGKAPKLLIYSASFLYSGVPSRFSGSRSGTDFTLTISSLQPEDFATYYCQQYDYRPVTFGQGTKVEIKRTGGGSGGGGSGGGASEVQLVESGGGLVQPGGSLRLSCAASGFNVSTSGMHWVRQAPGKGLEWVAFIYGAYSGTYYADSVKGRFTISADTSKNTAYLQMNSLRAEDTAVYYCSRSQSYTYWSAMDYWGQGTLVTVSS
B10: KRAS_G12D_A11_c14 (scFv)
scFv: DIQMTQSPSSLSASVGDRVTITCRASQDVNTAVAWYQQKPGKAPKLLIYSASFLYSGVPSRFSGSRSGTDFTLTISSLQPEDFATYYCQQYSFYPFTFGQGTKVEIKRTGGGSGGGGSGGGASEVQLVESGGGLVQPGGSLRLSCAASGFNFGSYIHWVRQAPGKGLEWVAIISGYSGNTYYADSVKGRFTISADTSKNTAYLQMNSLRAEDTAVYYCSRSNQSAYSYMDYWGQGTLVTVSS
B11: KRAS_G12D_A11_c114 (scFv)
scFv: DIQMTQSPSSLSASVGDRVTITCRASQDVNTAVAWYQQKPGKAPKLLIYSASFLYSGVPSRFSGSRSGTDFTLTISSLQPEDFATYYCQQYAYYPVTFGQGTKVEIKRTGGGSGGGGSGGGASEVQLVESGGGLVQPGGSLRLSCAASGFNLSGYYMHWVRQAPGKGLEWVAWFSPYSGYTYYADSVKGRFTISADTSKNTAYLQMNSLRAEDTAVYYCSRTHSSIYHSFDYWGQGTLVTVSS
B12: KRAS_G12D_A11_c110 (scFv)
scFv: DIQMTQSPSSLSASVGDRVTITCRASQDVNTAVAWYQQKPGKAPKLLIYSASFLYSGVPSRFSGSRSGTDFTLTISSLQPEDFATYYCQQYEYVPHTFGQGTKVEIKRTGGGSGGGGSGGGASEVQLVESGGGLVQPGGSLRLSCAASGFNISYGYMHWVRQAPGKGLEWVAKFHYGSGNTYYADSVKGRFTISADTSKNTAYLQMNSLRAEDTAVYYCSRSNYYYLDYWGQGTLVTVSS
B13: KRAS_G12D_A11_c115 (scFv)
scFv: DIQMTQSPSSLSASVGDRVTITCRASQDVNTAVAWYQQKPGKAPKLLIYSASFLYSGVPSRFSGSRSGTDFTLTISSLQPEDFATYYCQQYSYMPITFGQGTKVEIKRTGGGSGGGGSGGGASEVQLVESGGGLVQPGGSLRLSCAASGFNVSGQYMHWVRQAPGKGLEWVAVISPVSGNTYYADSVKGRFTISADTSKNTAYLQMNSLRAEDTAVYYCSRPMKTSYYGAFDYWGQGTLVTVSS
B14: KRAS_G12D_A11_c118 (scFv)
scFv: DIQMTQSPSSLSASVGDRVTITCRASQDVNTAVAWYQQKPGKAPKLLIYSASFLYSGVPSRFSGSRSGTDFTLTISSLQPEDFATYYCQQYDFTPMTFGQGTKVEIKRTGGGSGGGGSGGGASEVQLVESGGGLVQPGGSLRLSCAASGFNISYAKMHWVRQAPGKGLEWVAYLTYWGGYTNYADSVKGRFTISADTSKNTAYLQMNSLRAEDTAVYYCSRGEYGTYMDYWGQGTLVTVSS
B15: KRAS_G12D_A11_c112 (scFv)
scFv: DIQMTQSPSSLSASVGDRVTITCRASQDVNTAVAWYQQKPGKAPKLLIYSASFLYSGVPSRFSGSRSGTDFTLTISSLQPEDFATYYCQQYSYMPITFGQGTKVEIKRTGGGSGGGGSGGGASEVQLVESGGGLVQPGGSLRLSCAASGFNISYQHIHWVRQAPGKGLEWVAVFMPYQGSTYYADSVKGRFTISADTSKNTAYLQMNSLRAEDTAVYYCSRANIYSSHSFFDYWGQGTLVTVSS
B16: KRAS_G12D_A11_c16 (scFv)
scFv: DIQMTQSPSSLSASVGDRVTITCRASQDVNTAVAWYQQKPGKAPKLLIYSASFLYSGVPSRFSGSRSGTDFTLTISSLQPEDFATYYCQQYSYSPITFGQGTKVEIKRTGGGSGGGGSGGGASEVQLVESGGGLVQPGGSLRLSCAASGFNISDSYMHWVRQAPGKGLEWVATFSPYSSNTWYADSVKGRFTISADTSKNTAYLQMNSLRAEDTAVYYCSRSQFTFYQYFDYWGQGTLVTVSS
B17: KRAS_G12D_A11_c17 (scFv)
scFv: DIQMTQSPSSLSASVGDRVTITCRASQDVNTAVAWYQQKPGKAPKLLIYSAYFLYSGVPSRFSGSRSGTDFTLTISSLQPEDFATYYCQQYSAYYQPITFGQGTKVEIKRTGGGSGGGGSGGGASEVQLVESGGGLVQPGGSLRLSCAASGFNIFSDQMHWVRQAPGKGLEWVAGFMPYDSYYTNYADSVKGRFTISADTSKNTAYLQMNSLRAEDTAVYYCSRMSVRNAFDYWGQGTLVTVSS
B18: KRAS_G12D_A11_c119 (scFv)
scFv: DIQMTQSPSSLSASVGDRVTITCRASQDVNTAVAWYQQKPGKAPKLLIYSASFLYSGVPSRFSGSRSGTDFTLTISSLQPEDFATYYCQQYSSSSPVTFGQGTKVEIKRTGGGSGGGGSGGGASEVQLVESGGGLVQPGGSLRLSCAASGFNFSSYVMHWVRQAPGKGLEWVAVVYPDSGGTYYADSVKGRFTISADTSKNTAYLQMNSLRAEDTAVYYCSRTSSYYAFDYWGQGTLVTVSS
B19: KRAS_G12D_A11_c19 (scFv)
scFv: DIQMTQSPSSLSASVGDRVTITCRASQDVNTAVAWYQQKPGKAPKLLIYSASFLYSGVPSRFSGSRSGTDFTLTISSLQPEDFATYYCQQYSYYPITFGQGTKVEIKRTGGGSGGGGSGGGASEVQLVESGGGLVQPGGSLRLSCAASGFNLSYSYMHWVRQAPGKGLEWVAVISGFSGNTYYADSVKGRFTISADTSKNTAYLQMNSLRAEDTAVYYCSRSDSYYTAMDYWGQGTLVTVSS

Consider 19 molecules from US20200079854A1 (Johns Hopkins, published 2020).

The first assay concerns the target H/K/N RAS wt(55-64) peptide … with HLA-A1 and b2M on peptide-pulsed SigM5 cells (human). As to the kind of experiment: flow cytometry, phage-displayed scFv on peptide-pulsed SigM5 cells (FIG. 14). On the technique in general: In flow cytometry, cells or beads pass a laser one at a time.
Procedure: (§1) Cells were stained with 10 μL of precipitated phage per 100 μL of cells, washed and stained with rabbit anti-M13 antibody, then washed and stained with anti-Rabbit-PE antibody. Cells were stained with a live/dead Near-IR dye, washed, and analyzed by an LSRII flow cytometer.
(§2) The pulsed cells were pelleted, washed once in cold stain buffer (PBS containing 0.5% BSA, 2 mM EDTA, and 0.1% sodium azide), and resuspended in 100 μL of stain buffer. Phage staining was performed on ice with 10 uL (approximately 1×10⁹) phage for 1 hour in 100 uL total volume, followed by one 4 mL wash in cold stain buffer. Cells were then stained with 1 uL of rabbit anti-M13 antibody (Pierce, Rockford, Ill.) in 100 uL total volume on ice for 1 hour and washed once with 4 mL of cold stain buffer. Cells were stained with anti-rabbit-PE (Biolegend) on ice for 1 hour in 100 uL total volume, followed by incubation with LIVE/DEAD Fixable Near-IR Dead Cell Stain (Thermo Fisher) for 10 min at room temperature per manufacturer's instructions. Cells were washed once in 4 mL of stain buffer followed by resuspension in 300 uL of stain buffer before analysis. Stained cells were analyzed using an LSRII flow cytometer (Becton Dickinson, Mansfield, Mass.).
As to B1, the binding result is listed as “no binding”.

On to B2, for which the binding result is listed as “no binding”.

As to B3, the binding result is given as “no binding”.

Take B4: the binding result was “no binding”.

For B5, the binding result is recorded as “no binding”.

Turning to B6, the binding result is given as “no binding”.

As for B7, the binding result is reported as “no binding”.

For the molecule B8, the binding result is recorded as “no binding”.

Another assay has as its target KRAS wt(8-16) peptide … with HLA-A11 and b2M on peptide-pulsed MINO cells (human). The experiment in a line: flow cytometry, phage-displayed scFv on peptide-pulsed MINO cells (FIG. 10).
Procedure: as §1, §2
In the case of B9, the binding result is listed as “no binding”.

In the case of B10, the binding result is reported as “no binding”.

With B11, the binding result is reported as “no binding”.

Take B12: the binding result is given as “no binding”.

In the case of B13, the binding result is given as “no binding”.

On to B14, for which the binding result is given as “no binding”.

As to B15, the binding result was “no binding”.

As for B16, the binding result was “no binding”.

With B17, the binding result was “no binding”.

As for B18, the binding result was “no binding”.

For B19, the binding result is reported as “no binding”.
